This note sets out measurements from patent EP4814010A1 (Shanghai Huaota Biopharmaceutical Co., Ltd., dated 2026).

Assay [1] addresses T1, Human IL-11, No Tag (Sino Biological, 12225-HNCE) (human, UniProt P20809 22-199).
T1 construct: Bought protein; also called IL-11 Protein, Human, Recombinant
T1 sequence (looked up): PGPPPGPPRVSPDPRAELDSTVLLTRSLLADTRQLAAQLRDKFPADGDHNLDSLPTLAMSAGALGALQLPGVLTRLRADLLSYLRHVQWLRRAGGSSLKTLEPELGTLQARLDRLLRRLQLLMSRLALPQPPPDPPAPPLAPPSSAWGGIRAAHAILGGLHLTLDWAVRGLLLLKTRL
Briefly: SPR (Biacore T200), antibody captured on Protein A chip, IL-11 as analyte, 1:1 model. Background: SPR reads the build-up and loss of mass on a sensor chip optically.

Assay [2] addresses T2, Mouse IL-11, No Tag (Sino Biological, 50117-MNCE) (mouse, UniProt P47873 22-199).
T2 construct: Bought protein
T2 sequence (looked up): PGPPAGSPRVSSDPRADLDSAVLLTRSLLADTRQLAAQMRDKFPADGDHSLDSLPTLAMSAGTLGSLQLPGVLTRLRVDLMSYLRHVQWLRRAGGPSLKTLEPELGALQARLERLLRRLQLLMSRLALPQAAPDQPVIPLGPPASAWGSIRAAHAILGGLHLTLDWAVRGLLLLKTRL
The description is as above.

Assay [3] addresses T3, Trypsin inhibitor type 1-S from Glycine max (Glycine max, UniProt P01070 25-205).
T3 sequence (looked up): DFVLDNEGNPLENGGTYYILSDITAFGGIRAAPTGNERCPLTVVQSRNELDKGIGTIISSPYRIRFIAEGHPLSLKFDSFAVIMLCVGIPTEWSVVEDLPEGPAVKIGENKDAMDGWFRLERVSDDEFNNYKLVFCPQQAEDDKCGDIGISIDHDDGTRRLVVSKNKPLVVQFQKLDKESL
Briefly: SPR (Biacore 8K), trypsin inhibitor amine-coupled on CM5, antibody as analyte.

Assay [4] has as its target T4, Recombinant Rat Interleukin-11(IL-11), hFc Tag (CusaBio, CSB-MP859561RAd9) (rat, UniProt Q99MF5 22-199).
T4 construct: Bought fusion protein; also called Rat IL-11; not shown: hFc tag
T4 sequence (looked up): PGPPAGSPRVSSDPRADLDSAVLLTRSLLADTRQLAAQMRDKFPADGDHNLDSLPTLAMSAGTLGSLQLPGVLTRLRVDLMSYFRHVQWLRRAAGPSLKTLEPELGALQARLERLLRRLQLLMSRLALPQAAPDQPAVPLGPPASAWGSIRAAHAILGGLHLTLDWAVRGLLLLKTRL
Briefly: BLI (Octet RH96), biotinylated sample on SA sensor, rat IL-11 as analyte, 1:1 global fit. On the technique in general: Biolayer interferometry detects binding as a change in optical thickness at a sensor tip.

For assay [5], the target named is T5, Cynomolgus IL-11, No Tag (Sino Biological Inc., 90925-CNCE) (cynomolgus, UniProt P20808 22-199).
T5 construct: Bought protein; also called monkey IL-11
T5 sequence (looked up): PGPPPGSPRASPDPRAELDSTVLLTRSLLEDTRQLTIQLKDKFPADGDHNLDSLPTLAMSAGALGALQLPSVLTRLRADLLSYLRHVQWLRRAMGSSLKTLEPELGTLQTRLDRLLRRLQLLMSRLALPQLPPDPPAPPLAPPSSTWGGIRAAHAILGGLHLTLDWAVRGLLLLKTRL
Briefly: SPR (Biacore 8K), cynomolgus IL-11 amine-coupled on CM5, single-cycle kinetics, 1:1 model.

B1: anti-IL-11 monoclonal heavy chain antibody 700068 (antibody, V domains shown)
VH: QVQLVESGGGLVQPGGSLRLSCAASGSIASIYTMAWYRQAPGKQRELVALSTNRGATDYADFVKGRFTISRDNAENTMYLQMNSLKPEDTAVYYCNGVASSWSTGFVASWGQGTQVTVSS
notes: also called 700068 heavy chain antibody
B1: the Kd (usually the concentration at which binding is half-saturated) came to 1.93 nM in assay [1], 2.2 nM in assay [2], 1.17 nM in assay [4] and 4.56 nM in assay [5]. Besides, the koff (commonly the rate constant with which the complex falls apart) in assay [1] is 0.00133 s⁻¹; in assay [2], 0.00107 s⁻¹; in assay [4] it was 5.57e-05 s⁻¹; in assay [5] it was 0.00221 s⁻¹. The kon (in general, the rate constant with which the complex forms) in assay [1] turned out to be 689000 M⁻¹ s⁻¹; in assay [2], 487000 M⁻¹ s⁻¹; in assay [4], 47500 M⁻¹ s⁻¹; in assay [5], 485000 M⁻¹ s⁻¹. Moreover, the binding result in assay [3] was “no binding”.
